Data published in article PMC9723961 (Journal for Immunotherapy of Cancer, 2022).

Legend:
cryo-EM structure = target: the molecule itself; test: cryo-EM structure
Recombinant CD73-His [1] = target: T1, Recombinant CD73-His (human, UniProt P21589); test: BLI
Recombinant CD73-His [2] = target: T1, Recombinant CD73-His; test: cryo-EM structure

Binder | binding result (cryo-EM structure) | Kd (Recombinant CD73-His [1]) [nM] | stoichiometry N (Recombinant CD73-His [2])
Recombinant CD73-His (enzyme, human, UniProt P21589 27-549, looked up) WELTILHTNDVHSRLEQTSEDSSKCVNASRCMGGVARLFTKVQQIRRAEPNVLLLDAGDQYQGTIWFTVYKGAEVAHFMNALRYDAMALGNHEFDNGVEGLIEPLLKEAKFPILSANIKAKGPLASQISGLYLPYKVLPVGDEVVGIVGYTSKETPFLSNPGTNLVFEDEITALQPEVDKLKTLNVNKIIALGHSGFEMDKLIAQKVRGVDVVVGGHSNTFLYTGNPPSKEVPAGKYPFIVTSDDGRKVPVVQAYAFGKYLGYLKIEFDERGNVISSHGNPILLNSSIPEDPSIKADINKWRIKLDNYSTQELGKTIVYLDGSSQSCRFRECNMGNLICDAMINNNLRHTDEMFWNHVSMCILNGGGIRSPIDERNNGTITWENLAAVLPFGGTFDLVQLKGSTLKKAFEHSVHRYGQSTGEFLQVGGIHVVYDLSRKPGDRVVKLDVLCTKCRVPSYDPLKMDEVYKVILPNFLANGGDGFQMIKDELLRHDSGDQDINVVSTYISKMKVIYPAVEGRIKFS | binds |  | 
Mupadolimab (antibody, V domains shown) VH: QVQLVQSGAEVEKPGASVKVSCKASGYTFTSYWITWVRQAPGQGLEWMGDIYPGSGNTNYNEKFKTRVTITADKSTSTAYMELSSLRSEDTAVYYCAKEGGLTTEDYALDYWGQGTLVTVSS VL: EIVLTQSPATLSLSPGERATLSCRASKNVSTSGYSYMHWYQQKPGQAPRLLIYLASNLESGIPPRFSGSGYGTDFTLTINNIESEDAAYYFCQHSRELPFTFGQGTKVEIK |  | 0.2 | 2 antibodies per CD73 homodimer
